Target: HOXB13 DNA binding domain fragment (residues 209-283) (human, UniProt Q92826 209-283)
Assay: crystal structure

Chain of HOXB13 DNA binding domain fragment (residues 209-283) (Q92826 209-283): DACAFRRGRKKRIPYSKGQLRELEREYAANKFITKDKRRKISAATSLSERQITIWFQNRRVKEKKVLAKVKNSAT

B1: MEIS1 DNA binding domain fragment (residues 279-333) (domain or fragment, human, UniProt O00470 279-333, looked up)
chain: FPKVATNIMRAWLFQHLTHPYPSEEQKKQLAQDTGLTILQVNNWFINARRRIVQP
  binding result: binds

Source: article PMC8009048 (Science (New York, N.Y.), 2017)
